The values that follow come from patent publication US20240398963A1 (priority 2021, published 2024).

The series is classed as physicochemical. Particulars: 10 mM PBS buffer (pH=7.4), 37° C., 100 rpm shaker; free drug by HPLC, average release per day. The procedure:
The drug release and stability experiments were run using the test compounds. About 2.5±1.0 mg/mL (with regard to conjugate) solution of each test compound was prepared with 10 mM PBS buffer (pH=7.4) in Millipore Amicon® Ultra-0.5 ml 30 k Ultrafiltration centrifuge tube. The solution was kept swelling for 1 h at room temperature and then placed in a shaker at 100 rpm, 37° C. for continuous experiment. At the same time point of each day, samples were centrifuged at 10000 rpm for 1 h. The aliquot was transferred to HPLC vial for analysis. An 0.4 mL of 10 mM PBS buffer was added into the centrifuge tube and continue the experiment.
For the HPLC analysis at each time point, the peak areas of all relevant peaks from the chromatograms were retrieved and the concentration of free drug was calculated. Average release of free drug was calculated based on the sum of free drug and numbers of experiment days. The computing equation is as below.
The sample degradation rate was calculated based on the concentration and degree of substitution (NMR) for conjugated drug with regard to the initial starting point of the experiment (at t=0). The computing equation is as below.
“Conjugate of HA and 2-((6αS,6βR,7S,8αS,8βS,11αR,12αS,12βS)-6β-fluoro-7-hydroxy-6α,8α,10,10-tetramethyl-4-oxo-1,2,4,6α,6β,7,8,8α,11α,12,12α,12β-dodecahydro-8βH-naphtho[2′,1′:4,5]indeno[1,2-d][1,3]dioxol-8β-yl)-2-oxoethyl 2,5-diazabicyclo[2.2.1]heptane-2-carboxylate [Example 58]” had a Release rate of 0.25 %/day. The substance “Conjugate of HA and 2-((6αS,6βR,7S,8αS,8βS,11αR,12αS,12βS)-6β-fluoro-7-hydroxy-6α,8α,10,10-tetramethyl-4-oxo-1,2,4,6α,6β,7,8,8α,11α,12,12α,12β-dodecahydro-8βH-naphtho[2′,1′:4,5]indeno[1,2-d][1,3]dioxol-8β-yl)-2-oxoethyl glycylglycylglycinate [Example 19]” came in with a Release rate of 17.57 %/day. “Conjugate of HA and 2-((8S,9R,10S,11S,13S,14S,16R,17R)-9-fluoro-11,17-dihydroxy-10,13,16-trimethyl-3-oxo-6,7,8,9,10,11,12,13,14,15,16,17-dodecahydro-3H-cyclopenta[a]phenanthren-17-yl)-2-oxoethyl 4-aminobutanoate [Example 44]” returned a Release rate of 1.12 %/day. Consider “Conjugate of HA and 2-((8S,9R,10S,11S,13S,14S,16R,17R)-9-fluoro-11,17-dihydroxy-10,13,16-trimethyl-3-oxo-6,7,8,9,10,11,12,13,14,15,16,17-dodecahydro-3H-cyclopenta[a]phenanthren-17-yl)-2-oxoethyl 5-aminopentanoate [Example 79]”, for which the Release rate is given as 4.42 %/day. In turn, “Conjugate of HA and 2-((8S,9R,10S,11S,13S,14S,16R,17R)-9-fluoro-11,17-dihydroxy-10,13,16-trimethyl-3-oxo-6,7,8,9,10,11,12,13,14,15,16,17-dodecahydro-3H-cyclopenta[a]phenanthren-17-yl)-2-oxoethyl 6-aminohexanoate [Example 83]” yielded a Release rate of 2.15 %/day. On to “Conjugate of HA and 2-((8S,9R,10S,11S,13S,14S,16S,17R)-9-fluoro-11,17-dihydroxy-10,13,16-trimethyl-3-oxo-6,7,8,9,10,11,12,13,14,15,16,17-dodecahydro-3H-cyclopenta[a]phenanthren-17-yl)-2-oxoethyl 4-aminobutanoate [Example 46]”, for which the Release rate was 2.95 %/day.

The substance “Conjugate of HA and 2-((8S,9R,10S,11S,13S,14S,16S,17R)-9-fluoro-11,17-dihydroxy-10,13,16-trimethyl-3-oxo-6,7,8,9,10,11,12,13,14,15,16,17-dodecahydro-3H-cyclopenta[a]phenanthren-17-yl)-2-oxoethyl 6-aminohexanoate [Example 84]” registered a Release rate of 3.73 %/day. “Conjugate of HA and 2-((8S,9S,10R,11S,13S,14S,17R)-11,17-dihydroxy-10,13-dimethyl-3-oxo-2,3,6,7,8,9,10,11,12,13,14,15,16,17-tetradecahydro-1H-cyclopenta[a]phenanthren-17-yl)-2-oxoethyl 4-aminobutanoate [Example 38]” showed a Release rate of 1.71 %/day. On to “Conjugate of HA and 2-((8S,9S,10R,11S,13S,14S,17R)-11,17-dihydroxy-10,13-dimethyl-3-oxo-2,3,6,7,8,9,10,11,12,13,14,15,16,17-tetradecahydro-1H-cyclopenta[a]phenanthren-17-yl)-2-oxoethyl 5-aminopentanoate [Example 76]”, for which the Release rate was 2.66 %/day. With “Conjugate of HA and 2-((8S,9S,10R,11S,13S,14S,17R)-11,17-dihydroxy-10,13-dimethyl-3-oxo-2,3,6,7,8,9,10,11,12,13,14,15,16,17-tetradecahydro-1H-cyclopenta[a]phenanthren-17-yl)-2-oxoethyl 6-aminohexanoate [Example 93]” the figure was 7.67 %/day; with “Conjugate of HA and 2-((8S,9S,10R,11S,13S,14S,17R)-11,17-dihydroxy-10,13-dimethyl-3-oxo-6,7,8,9,10,11,12,13,14,15,16,17-dodecahydro-3H-cyclopenta[a]phenanthren-17-yl)-2-oxoethyl 4-aminobutanoate [Example 36]”, 2.89 %/day. For the substance “Conjugate of HA and 2-((8S,9S,10R,11S,13S,14S,17R)-11,17-dihydroxy-10,13-dimethyl-3-oxo-6,7,8,9,10,11,12,13,14,15,16,17-dodecahydro-3H-cyclopenta[a]phenanthren-17-yl)-2-oxoethyl 6-aminohexanoate [Example 81]”, the Release rate turned out to be 1.71 %/day.

Substance “Conjugate of HA and 2-((8S,9S,10R,11S,13S,14S,17R)-11,17-dihydroxy-10,13-dimethyl-3-oxo-6,7,8,9,10,11,12,13,14,15,16,17-dodecahydro-3H-cyclopenta[a]phenanthren-17-yl)-2-oxoethyl-5-aminopentanoate [Example 75]” gave a Release rate of 4.80 %/day. With “Conjugate of HA and 2-((8S,9S,10R,13S,14S,17R)-17-hydroxy-10,13-dimethyl-3,11-dioxo-2,3,6,7,8,9,10,11,12,13,14,15,16,17-tetradecahydro-1H-cyclopenta[a]phenanthren-17-yl)-2-oxoethyl 4-aminobutanoate [Example 40]” the figure was 2.49 %/day. As for “Conjugate of HA and 2-((8S,9S,10R,13S,14S,17R)-17-hydroxy-10,13-dimethyl-3,11-dioxo-2,3,6,7,8,9,10,11,12,13,14,15,16,17-tetradecahydro-1H-cyclopenta[a]phenanthren-17-yl)-2-oxoethyl 5-aminopentanoate [Example 77]”, the Release rate stood at 4.81 %/day. Turning to “Conjugate of HA and 2-((8S,9S,10R,13S,14S,17R)-17-hydroxy-10,13-dimethyl-3,11-dioxo-2,3,6,7,8,9,10,11,12,13,14,15,16,17-tetradecahydro-1H-cyclopenta[a]phenanthren-17-yl)-2-oxoethyl 6-aminohexanoate [Example 94]”, the Release rate worked out at 2.85 %/day. In turn, “Conjugate of HA and 2-((8S,9S,10R,13S,14S,17R)-17-hydroxy-10,13-dimethyl-3,11-dioxo-6,7,8,9,10,11,12,13,14,15,16,17-dodecahydro-3H-cyclopenta[a]phenanthren-17-yl)-2-oxoethyl 5-aminopentanoate [Example 74]” displayed a Release rate of 4.06 %/day.

In turn, “Conjugate of HA and 2-((8S,9S,10R,13S,14S,17R)-17-hydroxy-10,13-dimethyl-3,11-dioxo-6,7,8,9,10,11,12,13,14,15,16,17-dodecahydro-3H-cyclopenta[a]phenanthren-17-yl)-2-oxoethyl 6-aminohexanoate [Example 92]” yielded a Release rate of 8.21 %/day. For the substance “Conjugate of HA and 4-aminobutyl (2-((6S,8S,9S,10R,11S,13S,14S,17R)-11,17-dihydroxy-6,10,13-trimethyl-3-oxo-6,7,8,9,10,11,12,13,14,15,16,17-dodecahydro-3H-cyclopenta[a]phenanthren-17-yl)-2-oxoethyl) carbonate [Example 68]”, the Release rate is 8.02 %/day. “Conjugate of HA and 4-aminobutyl (2-((8S,9R,10S,11S,13S,14S,16R,17R)-9-fluoro-11,17-dihydroxy-10,13,16-trimethyl-3-oxo-6,7,8,9,10,11,12,13,14,15,16,17-dodecahydro-3H-cyclopenta[a]phenanthren-17-yl)-2-oxoethyl) carbonate [Example 70]” came in with a Release rate of 3.49 %/day.

For the substance “Conjugate of HA and 4-aminobutyl (2-((8S,9R,10S,11S,13S,14S,16S,17R)-9-fluoro-11,17-dihydroxy-10,13,16-trimethyl-3-oxo-6,7,8,9,10,11,12,13,14,15,16,17-dodecahydro-3H-cyclopenta[a]phenanthren-17-yl)-2-oxoethyl) carbonate [Example 72]”, the Release rate came to 7.86 %/day. “Conjugate of HA and 4-aminobutyl (2-((8S,9S,10R,11S,13S,14S,17R)-11,17-dihydroxy-10,13-dimethyl-3-oxo-2,3,6,7,8,9,10,11,12,13,14,15,16,17-tetradecahydro-1H-cyclopenta[a]phenanthren-17-yl)-2-oxoethyl) carbonate [Example 64]”: the Release rate is on record as 7.61 %/day. For the substance “Conjugate of HA and 4-aminobutyl (2-((8S,9S,10R,11S,13S,14S,17R)-11,17-dihydroxy-10,13-dimethyl-3-oxo-6,7,8,9,10,11,12,13,14,15,16,17-dodecahydro-3H-cyclopenta[a]phenanthren-17-yl)-2-oxoethyl) carbonate [Example 62]”, the Release rate was found to be 0.14 %/day.

Consider “Conjugate of HA and 4-aminobutyl (2-((8S,9S,10R,13S,14S,17R)-17-hydroxy-10,13-dimethyl-3,11-dioxo-2,3,6,7,8,9,10,11,12,13,14,15,16,17-tetradecahydro-1H-cyclopenta[a]phenanthren-17-yl)-2-oxoethyl) carbonate [Example 66]”, for which the Release rate was determined as 11.18 %/day. “Conjugate of HA and 4-aminobutyl (2-((8S,9S,10R,13S,14S,17R)-17-hydroxy-10,13-dimethyl-3,11-dioxo-6,7,8,9,10,11,12,13,14,15,16,17-dodecahydro-3H-cyclopenta[a]phenanthren-17-yl)-2-oxoethyl) carbonate [Example 60]” showed a Release rate of 15.04 %/day.
